This is an account of results in patent publication US20110131028A1, “CELL POPULATION SYSTEM AND PROCESS” (priority 2006, published 2011).

This experiment concerns B cells isolated from spleen. Briefly: Survival of unstimulated B cells in culture, lognormal time-to-die fit. Particulars: increasing IL-4 concentration; FIG. 3D. It counts as cell-based. As to the method:
As indicated above, the probability distribution is determined by simulating the decreasing size of a cell population over time in the absence of cell division. For example, when naive T or B lymphocytes are purified from lymphoid tissue and placed in tissue culture without stimulation, they progressively die by apoptosis, apparently from the absence of homeostatic survival signals that are present in vivo. To determine a probability distribution representing probabilities for cell death, small resting B cells from spleen/lymphnode can be placed in culture under different conditions and their viability measured by propidium iodide uptake at step 202. Cell numbers can be counted by reference to beads, as described in Deenick.
At step 204, the two parameters of the lognormal probability distribution, namely the mean μ and standard deviation σ, are determined using a standard fitting procedure (the Matlab fmincon function) that varies μ and σ to obtain the closest match between the corresponding lognormal survival curve (i.e., the simulated ‘survival curve’ representing the decreasing size of the cell population over time, the curve being generated from a lognormal probability distribution representing probabilities for times to die with distribution parameters μ and σ) and the experimental data. […]

B1: IL-4: cytokine that affects B cell viability without stimulating cell division (protein, UniProt P05112 25-153, looked up)
Interleukin-4: HKCDITLQEIIKTLNSLTEQKTLCTELTVTDIFAASKNTTEKETFCRAATVLRQFYSHHEKDTRCLGATAQQFHRHKQLIRFLKRLDRNLWGLAGLNSCPVKEANQSTLENFLERLKTIMREKYSKCSS
For the molecule B1, the “mean time to die μ” value is recorded as “increases”.
